Results as given in paper PMC12575831.

Tested on: PUS7 (pseudouridine synthase 7) (Homo sapiens)
Test: EMSA
Details: 1 mM Mg2+; 40 nM RNA, 0-500 nM PUS7; none (unmodified IVT, U250); 10 mM Tris-HCl pH 7.5, 100 mM KCl, 1 mM MgCl2, 0.1 mM DTT, 5% glycerol; 37 °C 30 min; gel 4-20% TBE at 4 °C

Substance: in vitro-transcribed 7SK snRNA
- Kd: 98 nM
